These results are taken from patent US20240132883A1, “RNA-TRIGGERED PROTEIN CLEAVAGE AND APPLICATIONS BY THE CRISPR CAS7-11-CSX29 COMPLEX” (Massachusetts Institute of Technology, published 2024).

Entries after “also recorded” stand apart in the source; their conditions may differ. Like-named read-outs stand apart in the source and are kept apart here.

Data set [1] concerns T1, D. ishimotonii Csx30, full-length.
T1 sequence: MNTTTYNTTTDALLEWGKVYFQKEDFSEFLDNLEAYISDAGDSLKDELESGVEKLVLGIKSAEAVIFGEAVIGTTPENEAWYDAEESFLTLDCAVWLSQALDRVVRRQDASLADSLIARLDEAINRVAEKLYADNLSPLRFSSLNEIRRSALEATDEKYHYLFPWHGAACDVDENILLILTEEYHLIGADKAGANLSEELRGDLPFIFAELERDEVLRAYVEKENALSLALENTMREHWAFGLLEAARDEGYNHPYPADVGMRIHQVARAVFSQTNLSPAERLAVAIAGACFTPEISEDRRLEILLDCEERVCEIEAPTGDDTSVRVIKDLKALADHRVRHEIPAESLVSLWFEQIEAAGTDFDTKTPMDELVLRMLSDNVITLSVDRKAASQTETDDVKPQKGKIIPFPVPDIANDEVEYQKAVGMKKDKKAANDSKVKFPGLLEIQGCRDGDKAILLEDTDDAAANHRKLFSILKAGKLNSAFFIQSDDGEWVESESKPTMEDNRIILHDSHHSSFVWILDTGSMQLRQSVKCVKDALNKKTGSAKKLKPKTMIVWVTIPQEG

Data set [2] addresses N-terminally FLAG-tagged citrine-Csx30-degron reporter (Desulfonema ishimotonii). Briefly: cell-based or functional assay.
Data set [3] concerns Cas7-11-Csx29 complex (mammalian codon-optimized) (Desulfonema ishimotonii). The experiment in a line: cell_activity. Conditions: HEK293FT, citrine-Csx30-DHFR degron reporter.
Data set [4] deals with T2, dCas7-11-Csx29 complex (Cas7-11 D429A/D654A with Csx29) (Desulfonema ishimotonii). Briefly: structure; cryo-EM 2.84 A; guide-target duplex with U4/C10 flipped out; PFS C(-1) and A(-2) contacted; no PAM; 1 mM MgCl2. Conditions: tags: MBP-Cas7-11-His6; His6-Twin-Strep-SUMO-Csx29. The method, then: (§1) The Cas7-11-crRNA-Csx29-tgRNA complex was reconstituted by mixing the purified Cas7-11-crRNA-Csx29 complex and the target RNA, at a molar ratio of 1:4. The complex was purified by size-exclusion chromatography on a Superose 6 Increase 10/300 column (GE Healthcare), equilibrated with buffer E (20 mM HEPES-NaOH, pH 7.0, 150 mM NaCl, 1 mM MgCl₂, and 1 mM DTT). The peak fraction containing Cas7-11-crRNA-Csx29-tgRNA was analyzed by TBE-urea gel, and concentrated to an A₂₆₀ of 3.0, using an Amicon Ultra-4 Centrifugal Filter Unit (MWCO 50 kDa). Cryo-EM grids were glow-discharged using PIB-10 Ion Bombarder (JEOL, Japan) with 10 mA current for 3 min. The sample (3 μL) was applied to freshly glow-discharged Au 300 mesh R1.2/1.3 grids (Quantifoil) in a Vitrobot Mark IV (FEI) at 4° C. under 100% humidity conditions, and the excess solution of the sample was blotted with filter paper (Agar Scientific) with a waiting time of 10 s and a blotting time of 4 s. The grids were plunge-frozen into liquid ethane cooled at liquid nitrogen temperature. […] The sample was applied onto freshly glow-discharged Au 300 mesh R0.6/1 grids (Quantifoil) in a Vitrobot Mark IV under similar conditions to those for the Cas7-11-crRNA-Csx29-tgRNA complex. […] Micrographs were recorded at a nominal magnification of ×105,000 with a pixel size of 0.83 Å in a total exposure of 48 e⁻/Å² per 48 frames with exposure time of 2.5 s. […]

Data set [5] addresses T2, dCas7-11-Csx29 complex (Cas7-11 …). Briefly: structure; cryo-EM 2.49 A, target-free; 5' tag anchored by Cas7.1/Cas7.2. Conditions: tags: MBP-Cas7-11-His6; His6-Twin-Strep-SUMO-Csx29. The protocol: as §1
Data set [6] concerns the target T3, D. ishimotonii Csx30, full-length.
T3 chain: T1 sequence

Data set [7] deals with T4, N-terminal fragment of Csx30 (residues 1-427) (Desulfonema ishimotonii).
T4 construct: Made by Csx29 cleavage of Csx30 in the gel-filtration experiment; expressed as such in the growth assays; also called Csx30-1
T4 chain: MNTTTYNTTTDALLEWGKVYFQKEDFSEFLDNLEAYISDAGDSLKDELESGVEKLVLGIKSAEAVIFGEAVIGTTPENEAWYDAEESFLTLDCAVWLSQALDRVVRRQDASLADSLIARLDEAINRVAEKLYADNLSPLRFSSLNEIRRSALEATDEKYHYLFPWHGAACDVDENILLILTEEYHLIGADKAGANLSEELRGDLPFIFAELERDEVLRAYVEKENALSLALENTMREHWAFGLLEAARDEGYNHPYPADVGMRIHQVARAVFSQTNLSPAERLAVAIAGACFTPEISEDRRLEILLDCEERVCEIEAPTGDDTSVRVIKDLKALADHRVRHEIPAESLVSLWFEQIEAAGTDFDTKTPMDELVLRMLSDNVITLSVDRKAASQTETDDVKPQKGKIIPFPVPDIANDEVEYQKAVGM
The experiment in a line: gel filtration (Superdex 200 Increase) and SDS-PAGE after cleavage by dCas7-11-crRNA-Csx29-tgRNA.

T2 sequence (chain, as listed by the source D429A D654A D429A D654A): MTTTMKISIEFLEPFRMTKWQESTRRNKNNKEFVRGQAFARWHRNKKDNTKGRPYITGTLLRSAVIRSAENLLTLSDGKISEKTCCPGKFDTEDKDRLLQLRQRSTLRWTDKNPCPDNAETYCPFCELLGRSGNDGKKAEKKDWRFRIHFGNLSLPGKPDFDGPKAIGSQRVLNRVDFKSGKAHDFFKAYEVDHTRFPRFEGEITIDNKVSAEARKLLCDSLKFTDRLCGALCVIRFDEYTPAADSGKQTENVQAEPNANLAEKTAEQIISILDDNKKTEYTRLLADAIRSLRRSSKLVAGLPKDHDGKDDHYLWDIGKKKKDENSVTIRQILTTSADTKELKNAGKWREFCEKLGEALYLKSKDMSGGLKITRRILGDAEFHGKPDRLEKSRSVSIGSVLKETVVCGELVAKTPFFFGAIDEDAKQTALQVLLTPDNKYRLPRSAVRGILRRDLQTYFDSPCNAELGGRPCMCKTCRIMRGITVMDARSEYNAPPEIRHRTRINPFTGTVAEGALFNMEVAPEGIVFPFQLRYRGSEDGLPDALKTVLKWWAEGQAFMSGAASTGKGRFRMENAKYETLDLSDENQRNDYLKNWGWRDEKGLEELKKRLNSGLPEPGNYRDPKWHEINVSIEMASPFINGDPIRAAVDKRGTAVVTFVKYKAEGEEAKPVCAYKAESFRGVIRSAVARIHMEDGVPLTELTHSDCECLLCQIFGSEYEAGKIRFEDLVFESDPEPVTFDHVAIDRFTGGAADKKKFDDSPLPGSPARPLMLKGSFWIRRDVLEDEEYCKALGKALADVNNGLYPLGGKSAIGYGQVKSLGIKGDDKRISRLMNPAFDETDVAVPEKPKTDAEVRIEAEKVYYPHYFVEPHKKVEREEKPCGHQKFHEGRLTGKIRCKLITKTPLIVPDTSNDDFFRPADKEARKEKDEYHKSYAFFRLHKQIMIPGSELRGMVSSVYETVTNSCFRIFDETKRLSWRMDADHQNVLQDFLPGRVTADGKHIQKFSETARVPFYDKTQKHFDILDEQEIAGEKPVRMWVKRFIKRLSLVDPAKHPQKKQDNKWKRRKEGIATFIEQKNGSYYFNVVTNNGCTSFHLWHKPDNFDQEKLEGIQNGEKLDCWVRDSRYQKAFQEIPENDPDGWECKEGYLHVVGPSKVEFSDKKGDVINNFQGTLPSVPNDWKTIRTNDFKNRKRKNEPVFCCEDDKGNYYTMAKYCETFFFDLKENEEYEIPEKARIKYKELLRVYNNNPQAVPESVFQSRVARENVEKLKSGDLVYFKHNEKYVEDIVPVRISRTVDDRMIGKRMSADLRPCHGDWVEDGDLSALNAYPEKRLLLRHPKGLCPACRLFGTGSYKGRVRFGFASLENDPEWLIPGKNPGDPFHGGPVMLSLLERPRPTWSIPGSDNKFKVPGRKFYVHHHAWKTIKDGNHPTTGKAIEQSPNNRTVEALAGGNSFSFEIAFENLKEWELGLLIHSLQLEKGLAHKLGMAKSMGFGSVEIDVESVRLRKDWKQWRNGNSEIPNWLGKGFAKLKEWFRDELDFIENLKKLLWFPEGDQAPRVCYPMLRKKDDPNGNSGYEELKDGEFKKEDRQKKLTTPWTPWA
Chain of Cas7-11-Csx29 complex (mammalian codon-optimized) (Desulfonema ishimotonii) (chain, as listed by the source): as the sequence (chain, as listed by the source D429A D654A D429A D654A) above, with A429D, A654D counted along it

For “Csx29 H615A/C658A (catalytically inactivated Csx29)”, the “in vitro cleavage of Csx30 (SDS-PAGE)” value in data set [1] is recorded as “The H615A/C658A mutations in Csx29 abolished the Csx30 cleavage”.

For the molecule “Csx29, mammalian codon-optimized, expressed in HEK293FT cells with Cas7-11 (enzyme)”, the citrine fluorescence in HEK293FT cells in data set [2] came out at 3 fold. “Gluc-targeting guide RNA ; Gaussia luciferase mRNA target” yielded an activity (fold citrine fluorescence) in data set [3] of 3.

B1: crRNA (38 nt, 15-nt 5' tag + 23-nt spacer) ; target RNA with non-matching PFS (tgRNA/CTR) (ssRNA ; ssRNA)
RNA 1: UUGAUGUCACGGAACCUUUGUUGUCUUCGACAUGGGUA
RNA 2: GGAUUACCCAUGUCGAAGACAACAAAGCAAGGC
On to B1, for which, in data set [4], the binding result is on record as “binds”.

B2: crRNA (38 nt, 15-nt 5' tag + 23-nt spacer) (ssRNA)
RNA: B1 RNA 1
As for B2, the binding result in data set [5] is given as “binds”.

B3: D. ishimotonii Csx29, expressed as His6-Twin-Strep-SUMO-Csx29 (protein)
chain: HHHHHHMSNPIRDIQDRLKTAKFDNKDDMMNLASSLYKYEKQLMDSSEATLCQQGLSNRPNSFSQLSQFRDSDIQSKAGGQTGKFWQNEYEACKNFQTHKERRETLEQIIRFLQNGAEEKDADDLLLKTLARAYFHRGLLYRPKGFSVPARKVEAMKKAIAYCEIILDKNEEESEALRIWLYAAMELRRCGEEYPENFAEKLFYLANDGFISELYDIRLFLEYTEREEDNNFLDMILQENQDRERLFELCLYKARACFHLNQLNDVRIYGESAIDNAPGAFADPFWDELVEFIRMLRNKKSELWKEIAIKAWDKCREKEMKVGNNIYLSWYWARQRELYDLAFMAQDGIEKKTRIADSLKSRTTLRIQELNELRKDAHRKQNRRLEDKLDRIIEQENEARDGAYLRRNPPCFTGGKREEIPFARLPQNWIAVHFYLNELESHEGGKGGHALIYDPQKAEKDQWQDKSFDYKELHRKFLEWQENYILNEEGSADFLVTLCREIEKAMPFLFKSEVIPEDRPVLWIPHGFLHRLPLHAAMKSGNNSNIEIFWERHASRYLPAWHLFDPAPYSREESSTLLKNFEEYDFQNLENGEIEVYAPSSPKKVKEAIRENPAILLLLCHGEADMTNPFRSCLKLKNKDMTIFDLLTVEDVRLSGSRILLGACESDMVPPLEFSVDEHLSVSGAFLSHKAGEIVAGLWTVDSEKVDECYSYLVEEKDFLRNLQEWQMAETENFRSENDSSLFYKIAPFRIIGFPAE
In the case of B3, in data set [6], the “cleavage of Csx30 within the Csx30-Csx31-DiRpoE complex (gel filtration, SDS-PAGE)” value is recorded as “Like isolated Csx30, Csx30 in the Csx30-Csx31-DiRpoE complex was cleaved by the Cas7-11-Csx29 complex”; the “in vitro cleavage of Csx30 (SDS-PAGE)” value is “Cas7-11-crRNA-Csx29 cleaves Csx30 into two fragments, Csx30-1 (-50 kDa) and Csx30-2 (-15 kDa), only in the presence of the tgRNA; also recorded: the D429A/D654A catalytic mutations in Cas7-11 ... unexpectedly, improved the Csx30 cleavage by Csx29”; the “in vitro cleavage of Csx30 (SDS-PAGE) with target RNAs TR, CTR, NTR” value is “Csx30 was cleaved by the Cas7-11-Csx29 complex efficiently in the presence of CTR, but not TR and NTR”.

B4: C-terminal fragment of Csx30 (residues 428-565) (other)
chain: KKDKKAANDSKVKFPGLLEIQGCRDGDKAILLEDTDDAAANHRKLFSILKAGKLNSAFFIQSDDGEWVESESKPTMEDNRIILHDSHHSSFVWILDTGSMQLRQSVKCVKDALNKKTGSAKKLKPKTMIVWVTIPQEG
notes: Made by Csx29 cleavage of Csx30; also called Csx30-2
As to B4, the binding result in data set [7] is listed as “no binding”.
